Reference: US20140087995A1 (published 2014)
Each block holds one binder with its values, some of them ahead of it. Numbered stars: 1 amine (or outer) side, 2 acyl side, 3 side chain; on linkers, the order of the positions; unused ones are H or OH. Bridge positions count the residues as written; N and C are the ends. Ends that are not written are not given here. * marks the point of attachment. C20 diacid = O=C(O)CCCCCCCCCCCCCCCCCCC(=O)*; γGlu = O=C(O)[C@H](CCC(=O)[*:2])N[*:1]

How the values were obtained:
[1] = target: T1, rat calcitonin receptor (rat, UniProt P32214 25-516); test: SPA competition binding, displacement of 125I-Calcitonin from membranes of BHK tk'ts 13 cells with rat calcitonin receptor (Assay VIII)
T1 construct: whole, on cells; In cell membranes prepared from transiently transfected BHK tk'ts 13 cells (Assay VIII); also called rCTR; rat calcitonin (a) receptor
T1 sequence (looked up): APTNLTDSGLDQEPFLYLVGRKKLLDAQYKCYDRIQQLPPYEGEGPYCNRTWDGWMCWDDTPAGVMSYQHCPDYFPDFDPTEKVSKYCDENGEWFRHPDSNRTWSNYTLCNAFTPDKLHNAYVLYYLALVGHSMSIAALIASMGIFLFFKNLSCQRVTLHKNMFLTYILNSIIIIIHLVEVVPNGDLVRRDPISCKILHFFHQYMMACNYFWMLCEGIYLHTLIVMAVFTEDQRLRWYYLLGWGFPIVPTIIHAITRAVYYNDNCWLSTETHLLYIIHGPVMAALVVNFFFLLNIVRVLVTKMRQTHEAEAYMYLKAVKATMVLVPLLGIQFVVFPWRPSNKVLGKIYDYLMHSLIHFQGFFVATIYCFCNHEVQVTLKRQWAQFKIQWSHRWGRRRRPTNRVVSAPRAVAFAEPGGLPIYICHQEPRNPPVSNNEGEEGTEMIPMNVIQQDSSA

[2] = target: T2, human amylin receptor (amylin 3(a) receptor: human calcitonin receptor co-expressed with RAMP-3) (human, UniProt P30988 25-474; O60896 24-148, limits assumed); test: SPA displacement of 125I-rat amylin, hAmylin 3(a) receptor membranes
T2 construct: whole, on cells; Used as cell membranes prepared from the Amylin 3(a)/CRE-luc BHK cells (Assay V); also called hAmylin-R; hAmylinR
T2 sequence (looked up) 1: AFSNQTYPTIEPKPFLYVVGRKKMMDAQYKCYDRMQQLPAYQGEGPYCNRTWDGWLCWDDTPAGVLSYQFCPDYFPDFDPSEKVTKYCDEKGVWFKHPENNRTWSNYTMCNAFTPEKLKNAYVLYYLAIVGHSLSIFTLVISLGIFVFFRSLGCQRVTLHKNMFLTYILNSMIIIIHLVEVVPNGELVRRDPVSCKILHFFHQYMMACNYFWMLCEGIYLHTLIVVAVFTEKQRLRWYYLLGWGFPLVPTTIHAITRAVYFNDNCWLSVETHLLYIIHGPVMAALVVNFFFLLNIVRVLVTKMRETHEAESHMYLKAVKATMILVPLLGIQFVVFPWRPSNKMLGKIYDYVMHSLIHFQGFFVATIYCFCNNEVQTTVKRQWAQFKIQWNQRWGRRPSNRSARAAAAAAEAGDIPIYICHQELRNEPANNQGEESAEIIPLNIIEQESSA
T2 sequence (looked up) 2: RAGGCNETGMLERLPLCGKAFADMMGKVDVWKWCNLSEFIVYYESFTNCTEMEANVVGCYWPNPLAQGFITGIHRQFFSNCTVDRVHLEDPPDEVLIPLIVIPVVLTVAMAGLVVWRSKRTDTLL
Procedure, shortened: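 SPA beads with BHK Amylin 3(a)/CRE-luc cell membranes (35 ng/μL final) in 50 mM Hepes pH 7.4, 1 mM CaCl2, 5 mM MgCl₂, 0.1% OA, 0.02% Tween20.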

[3] = target: T3, human amylin receptor (amylin 3(a) receptor: human calcitonin receptor plus RAMP-3) (human, UniProt P30988 25-474; O60896 24-148); test: SPA competition, displacement of 125I-rat amylin from membranes of BHK cells with human calcitonin receptor + RAMP-3 (Assay V)
T3 construct: whole, on cells; functional assay used the whole cells; also called hAmylin-R; hAmylinR
T3 sequence (looked up) 1: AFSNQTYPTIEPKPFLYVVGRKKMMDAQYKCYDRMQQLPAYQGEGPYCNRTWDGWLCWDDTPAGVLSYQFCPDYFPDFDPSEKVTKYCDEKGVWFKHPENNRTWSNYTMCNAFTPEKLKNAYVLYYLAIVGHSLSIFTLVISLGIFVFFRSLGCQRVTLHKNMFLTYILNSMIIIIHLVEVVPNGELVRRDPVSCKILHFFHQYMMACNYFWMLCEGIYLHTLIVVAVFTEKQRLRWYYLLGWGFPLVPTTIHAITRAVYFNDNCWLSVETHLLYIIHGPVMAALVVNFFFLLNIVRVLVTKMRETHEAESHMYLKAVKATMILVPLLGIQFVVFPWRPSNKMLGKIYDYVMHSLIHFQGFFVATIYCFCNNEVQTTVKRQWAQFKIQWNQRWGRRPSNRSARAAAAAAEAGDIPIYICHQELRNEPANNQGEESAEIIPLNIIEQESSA
T3 sequence (looked up) 2: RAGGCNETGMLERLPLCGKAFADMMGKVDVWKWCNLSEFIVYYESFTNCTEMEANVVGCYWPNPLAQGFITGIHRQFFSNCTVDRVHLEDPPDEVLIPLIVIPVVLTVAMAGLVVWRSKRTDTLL
Experimental: The binding assay was performed using scintillation proximity assay (SPA) beads (RPNQ0001) from PerkinElmer and cell membranes from the Amylin 3(a)/CRE-luc cells (as described in Assay (II)) were used. Membranes were prepared in the following way; the cells were rinsed with PBS and incubated with Versene for approximately 5 min before harvesting. The cells were flushed with PBS and the cell-suspension was centrifuged for 5 min at 1000 rpm. Cells were homogenized (ultrathurrax) in a buffer containing 20 mM Na-HEPES and 10 mM EDTA (pH 7.4) and centrifuged at 20.000 rpm for 15 min. The resulting pellet was resuspended, homogenized and centrifuged (20.000 rpm, 15 min) in a buffer containing 20 mM Na-HEPES and 0.1 mM EDTA (pH 7.4, buffer 2). The resulting pellet was resuspended in buffer 2 and protein concentration was measured (BCA protein Assay, Pierce). The homogenate was kept cold during the whole procedure. The membranes were kept at −80° C. until use. The assay was performed in a 384 well Optiplate (PerkinElmer) in a total volume of 40 ul. Membranes were mixed with SPA beads. Final concentration of membranes 35 ng/μL final and SPA beads was 0.05 mg/well. Test-compounds were dissolved in DMSO and further diluted in assay buffer (50 mM Hepes, pH 7.4, 1 mM CaCl2, 5 mM MgCl₂, 0.1% OA and 0.02% Tween20). […] The final mixture was incubated with shaking at 400 rpm for 120 min at 25° C. prior to centrifugation (1500 rpm, 10 min). Samples were analyzed on TopCounter™ (Packard). The IC₅₀ was calculated using (one site binding competition analysis) GraphPad Prism5 as a measure of receptor affinity.

[4] = target: T3, human amylin receptor (amylin 3(a) …); test: cell-based or functional assay
[5] = target: T4, human calcitonin receptor (human, UniProt P30988 25-474); test: cell-based or functional assay
T4 sequence (looked up): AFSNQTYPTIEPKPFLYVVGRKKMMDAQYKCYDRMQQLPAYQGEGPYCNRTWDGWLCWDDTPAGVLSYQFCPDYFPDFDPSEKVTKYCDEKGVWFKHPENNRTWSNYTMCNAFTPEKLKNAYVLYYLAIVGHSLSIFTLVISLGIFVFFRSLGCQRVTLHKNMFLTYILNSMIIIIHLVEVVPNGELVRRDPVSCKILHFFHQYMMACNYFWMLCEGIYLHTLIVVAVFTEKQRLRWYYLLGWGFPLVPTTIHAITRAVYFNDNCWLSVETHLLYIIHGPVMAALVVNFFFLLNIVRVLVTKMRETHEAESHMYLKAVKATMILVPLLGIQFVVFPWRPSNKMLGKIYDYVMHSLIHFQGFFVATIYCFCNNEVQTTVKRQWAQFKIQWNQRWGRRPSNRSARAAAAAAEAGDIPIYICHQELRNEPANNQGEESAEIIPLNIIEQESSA

IC50 [1]: 30.9 nM
B1: [Asp14,Arg17,Pro21,Pro27,Arg35]-h-amylin (peptide)
peptide: KCNTATCATQRLADFLRHSSPNFGAIPSSTNVGSRTY-NH2
modifications: disulfide 2-7

IC50 [2]: 0.217 nM
B2: N^-1-[(4S)-4-carboxy-4-(19-carboxynonadecanoylamino)butanoyl]-Gly[Arg1,His14,Arg17,Pro21,Pro27,Pro34]-h-amylin (peptide)
peptide: {C20 diacid-γGlu}-GRCNTATCATQRLAHFLRHSSPNFGAIPSSTNVGPNTY-NH2
modifications: disulfide 3-8
SMILES: CC[C@H](C)[C@H](NC(=O)[C@H](C)NC(=O)CNC(=O)[C@H](Cc1ccccc1)NC(=O)[C@H](CC(N)=O)NC(=O)[C@@H]1CCCN1C(=O)[C@H](CO)NC(=O)[C@H](CO)NC(=O)[C@H](Cc1c[nH]cn1)NC(=O)[C@H](CCCNC(=N)N)NC(=O)[C@H](CC(C)C)NC(=O)[C@H](Cc1ccccc1)NC(=O)[C@H](Cc1c[nH]cn1)NC(=O)[C@H](C)NC(=O)[C@H](CC(C)C)NC(=O)[C@H](CCCNC(=N)N)NC(=O)[C@H](CCC(N)=O)NC(=O)[C@@H](NC(=O)[C@H](C)NC(=O)[C@@H]1CSSC[C@H](NC(=O)[C@H](CCCNC(=N)N)NC(=O)CNC(=O)CC[C@H](NC(=O)CCCCCCCCCCCCCCCCCCC(=O)O)C(=O)O)C(=O)N[C@@H](CC(N)=O)C(=O)N[C@@H]([C@@H](C)O)C(=O)N[C@@H](C)C(=O)N[C@@H]([C@@H](C)O)C(=O)N1)[C@@H](C)O)C(=O)N1CCC[C@H]1C(=O)N[C@@H](CO)C(=O)N[C@@H](CO)C(=O)N[C@H](C(=O)N[C@@H](CC(N)=O)C(=O)N[C@H](C(=O)NCC(=O)N1CCC[C@H]1C(=O)N[C@@H](CC(N)=O)C(=O)N[C@H](C(=O)N[C@@H](Cc1ccc(O)cc1)C(N)=O)[C@@H](C)O)C(C)C)[C@@H](C)O

IC50 [3]: 0.554 nM
Ratio hCT/hAmylin funct. [4]: 4.8
hAmylin-R funct. EC50 (pM) [4]: 154 pM
hCTR funct. EC50 (pM) [5]: 742 pM
B3: N^α1-[(4S)-4-carboxy-4-(19-carboxynonadecanoylamino)butanoyl]-[Glu14,Arg17,Pro21,Pro27,His35]-h-amylin (peptide)
peptide: {C20 diacid-γGlu}-KCNTATCATQRLAEFLRHSSPNFGAIPSSTNVGSHTY-NH2
modifications: disulfide 2-7
SMILES: CC[C@H](C)[C@H](NC(=O)[C@H](C)NC(=O)CNC(=O)[C@H](Cc1ccccc1)NC(=O)[C@H](CC(N)=O)NC(=O)[C@@H]1CCCN1C(=O)[C@H](CO)NC(=O)[C@H](CO)NC(=O)[C@H](Cc1c[nH]cn1)NC(=O)[C@H](CCCNC(=N)N)NC(=O)[C@H](CC(C)C)NC(=O)[C@H](Cc1ccccc1)NC(=O)[C@H](CCC(=O)O)NC(=O)[C@H](C)NC(=O)[C@H](CC(C)C)NC(=O)[C@H](CCCNC(=N)N)NC(=O)[C@H](CCC(N)=O)NC(=O)[C@@H](NC(=O)[C@H](C)NC(=O)[C@@H]1CSSC[C@H](NC(=O)[C@H](CCCCN)NC(=O)CC[C@H](NC(=O)CCCCCCCCCCCCCCCCCCC(=O)O)C(=O)O)C(=O)N[C@@H](CC(N)=O)C(=O)N[C@@H]([C@@H](C)O)C(=O)N[C@@H](C)C(=O)N[C@@H]([C@@H](C)O)C(=O)N1)[C@@H](C)O)C(=O)N1CCC[C@H]1C(=O)N[C@@H](CO)C(=O)N[C@@H](CO)C(=O)N[C@H](C(=O)N[C@@H](CC(N)=O)C(=O)N[C@H](C(=O)NCC(=O)N[C@@H](CO)C(=O)N[C@@H](Cc1c[nH]cn1)C(=O)N[C@H](C(=O)N[C@@H](Cc1ccc(O)cc1)C(N)=O)[C@@H](C)O)C(C)C)[C@@H](C)O
notes: also called compound 18
